Blank lines part the entries; values can stand above or below the binder they belong to.
Biological target: T1, HLA-A*02:01 (human)
T1 construct: MHC class I monomer of the UV-ligand exchange assay; also called peptide-receptive MHC molecules; MHC class I
Assay: UV peptide-exchange ELISA
Text: Candidate peptides for T cell based therapies according to the present invention were further tested for their MHC binding capacity (affinity). The individual peptide-MHC complexes were produced by UV-ligand exchange, where a UV-sensitive peptide is cleaved upon UV-irradiation, and exchanged with the peptide of interest as analyzed. Only peptide candidates that can effectively bind and stabilize the peptide-receptive MHC molecules prevent dissociation of the MHC complexes. To determine the yield of the exchange reaction, an ELISA was performed based on the detection of the light chain (β2m) of stabilized MHC complexes. The assay was performed as generally described in Rodenko et al. (Rodenko et al., 2006).
96 well MAXISorp plates (NUNC) were coated over night with 2 ug/ml streptavidin in PBS at room temperature, washed 4× and blocked forl h at 37° C. in 2% BSA containing blocking buffer. Refolded HLA-A*02:01/MLA-001 monomers served as standards, covering the range of 15-500 ng/ml. Peptide-MHC monomers of the UV-exchange reaction were diluted 100 fold in blocking buffer. Samples were incubated for 1 h at 37° C., washed four times, incubated with 2 ug/ml HRP conjugated anti-β2m for 1 h at 37° C., washed again and detected with TMB solution that is stopped with […]. Absorption was measured at 450 nm. Candidate peptides that show a high exchange yield (preferably higher than 50%, most preferred higher than 75%) are generally preferred for a generation and production of antibodies or fragments thereof, and/or T cell receptors or fragments thereof, as they show sufficient avidity to the MHC molecules and prevent dissociation of the MHC complexes.

peptide exchange yield: 50 to 75%
B1: AMNISVPQV (peptide)
peptide: AMNISVPQV

peptide exchange yield: 50 to 75%
B2: TLLADDLEIKL (peptide)
peptide: TLLADDLEIKL

peptide exchange yield: ≥ 75%
B3: GLQENLDVVV (peptide)
peptide: GLQENLDVVV

peptide exchange yield: 50 to 75%
B4: ILAGEMLSV (peptide)
peptide: ILAGEMLSV

peptide exchange yield: ≥ 75%
B5: KIMDYSLLLGV (peptide)
peptide: KIMDYSLLLGV

peptide exchange yield: 50 to 75%
B6: TLLQVFHLL (peptide)
peptide: TLLQVFHLL

peptide exchange yield: 50 to 75%
B7: ILQPMDIHV (peptide)
peptide: ILQPMDIHV

peptide exchange yield: 20 to 50%
B8: AVLHLLLSV (peptide)
peptide: AVLHLLLSV

peptide exchange yield: ≥ 75%
B9: ALYLTEVFL (peptide)
peptide: ALYLTEVFL

peptide exchange yield: 50 to 75%
B10: RLLDEQFAVL (peptide)
peptide: RLLDEQFAVL

peptide exchange yield: 50 to 75%
B11: SQWEDIHVV (peptide)
peptide: SQWEDIHVV

peptide exchange yield: 50 to 75%
B12: YLFEEAISM (peptide)
peptide: YLFEEAISM

peptide exchange yield: 50 to 75%
B13: VLLEYHIAYL (peptide)
peptide: VLLEYHIAYL

peptide exchange yield: 50 to 75%
B14: AMAGDVVYA (peptide)
peptide: AMAGDVVYA

peptide exchange yield: 20 to 50%
B15: LLSAAEPVPA (peptide)
peptide: LLSAAEPVPA

peptide exchange yield: 50 to 75%
B16: ILGDILLKV (peptide)
peptide: ILGDILLKV

peptide exchange yield: 20 to 50%
B17: GLDDAEYAL (peptide)
peptide: GLDDAEYAL

peptide exchange yield: ≥ 75%
B18: FLLNLQNCHL (peptide)
peptide: FLLNLQNCHL

peptide exchange yield: 20 to 50%
B19: KLDETGVAL (peptide)
peptide: KLDETGVAL

peptide exchange yield: ≥ 75%
B20: GVATAGCVNEV (peptide)
peptide: GVATAGCVNEV

peptide exchange yield: 20 to 50%
B21: KLKDRLPSI (peptide)
peptide: KLKDRLPSI

peptide exchange yield: 50 to 75%
B22: NLLDPGSSYLL (peptide)
peptide: NLLDPGSSYLL

peptide exchange yield: 50 to 75%
B23: GLLESGRHYL (peptide)
peptide: GLLESGRHYL

peptide exchange yield: 50 to 75%
B24: YLDDLLPKL (peptide)
peptide: YLDDLLPKL

peptide exchange yield: 20 to 50%
B25: VMILKLPFL (peptide)
peptide: VMILKLPFL

peptide exchange yield: 50 to 75%
B26: GLVETELQL (peptide)
peptide: GLVETELQL

peptide exchange yield: 20 to 50%
B27: ATYSGLESQSV (peptide)
peptide: ATYSGLESQSV

peptide exchange yield: 20 to 50%
B28: KTVEPPISQV (peptide)
peptide: KTVEPPISQV

peptide exchange yield: 50 to 75%
B29: LLRDGIELV (peptide)
peptide: LLRDGIELV

peptide exchange yield: ≥ 75%
B30: FMHQIIDQV (peptide)
peptide: FMHQIIDQV

peptide exchange yield: 50 to 75%
B31: VLLFIEHSV (peptide)
peptide: VLLFIEHSV

peptide exchange yield: 50 to 75%
B32: SLVEAQGWLV (peptide)
peptide: SLVEAQGWLV

peptide exchange yield: 50 to 75%
B33: AVLGLVWLL (peptide)
peptide: AVLGLVWLL

peptide exchange yield: 50 to 75%
B34: LLPTGVFQV (peptide)
peptide: LLPTGVFQV

peptide exchange yield: 50 to 75%
B35: ILPTLEKELFL (peptide)
peptide: ILPTLEKELFL

peptide exchange yield: 50 to 75%
B36: ILLGIQELL (peptide)
peptide: ILLGIQELL

peptide exchange yield: 50 to 75%
B37: YMAPEVVEA (peptide)
peptide: YMAPEVVEA

peptide exchange yield: 50 to 75%
B38: TVLPVPPLSV (peptide)
peptide: TVLPVPPLSV

peptide exchange yield: 50 to 75%
B39: QLLPVSNVVSV (peptide)
peptide: QLLPVSNVVSV

peptide exchange yield: 50 to 75%
B40: LLVQEPDGLMV (peptide)
peptide: LLVQEPDGLMV

peptide exchange yield: 50 to 75%
B41: FLGGLSPGV (peptide)
peptide: FLGGLSPGV

peptide exchange yield: 50 to 75%
B42: SLDDVEGMSV (peptide)
peptide: SLDDVEGMSV

peptide exchange yield: 50 to 75%
B43: VLGEYSYLL (peptide)
peptide: VLGEYSYLL

peptide exchange yield: 20 to 50%
B44: TLTDEQFLV (peptide)
peptide: TLTDEQFLV

peptide exchange yield: 50 to 75%
B45: YTLDSLYWSV (peptide)
peptide: YTLDSLYWSV

peptide exchange yield: 50 to 75%
B46: GLDDLLLFL (peptide)
peptide: GLDDLLLFL

peptide exchange yield: 20 to 50%
B47: VIRNIVEAA (peptide)
peptide: VIRNIVEAA

peptide exchange yield: 50 to 75%
B48: TILDYINVV (peptide)
peptide: TILDYINVV

peptide exchange yield: 50 to 75%
B49: ILARDILEI (peptide)
peptide: ILARDILEI

peptide exchange yield: 50 to 75%
B50: NLLDDRGMTAL (peptide)
peptide: NLLDDRGMTAL

peptide exchange yield: 50 to 75%
B51: VLDELPPLI (peptide)
peptide: VLDELPPLI

peptide exchange yield: 50 to 75%
B52: ILQALAVHL (peptide)
peptide: ILQALAVHL

peptide exchange yield: 50 to 75%
B53: FLQDSKVIFV (peptide)
peptide: FLQDSKVIFV

peptide exchange yield: 50 to 75%
B54: LLYDNVPGA (peptide)
peptide: LLYDNVPGA

peptide exchange yield: 50 to 75%
B55: VLNDGAPNV (peptide)
peptide: VLNDGAPNV

peptide exchange yield: 20 to 50%
B56: TLLDQLDTQL (peptide)
peptide: TLLDQLDTQL

peptide exchange yield: 50 to 75%
B57: AVLLVLPLV (peptide)
peptide: AVLLVLPLV

peptide exchange yield: 20 to 50%
B58: GIIDINVRL (peptide)
peptide: GIIDINVRL

peptide exchange yield: 50 to 75%
B59: RLDYITAEI (peptide)
peptide: RLDYITAEI

peptide exchange yield: 50 to 75%
B60: TLLDWQDSL (peptide)
peptide: TLLDWQDSL

peptide exchange yield: 50 to 75%
B61: ALWDPVIEL (peptide)
peptide: ALWDPVIEL

peptide exchange yield: 50 to 75%
B62: NLWSVDGEVTV (peptide)
peptide: NLWSVDGEVTV

peptide exchange yield: 50 to 75%
B63: SLWNAGTSV (peptide)
peptide: SLWNAGTSV

peptide exchange yield: 50 to 75%
B64: FLLEDLSQKL (peptide)
peptide: FLLEDLSQKL

peptide exchange yield: 50 to 75%
B65: QLIPKLIFL (peptide)
peptide: QLIPKLIFL

peptide exchange yield: 50 to 75%
B66: FLYIRQLAI (peptide)
peptide: FLYIRQLAI

peptide exchange yield: 50 to 75%
B67: FLAEASVMTQL (peptide)
peptide: FLAEASVMTQL

From US20170165337A1 (IMMATICS BIOTECHNOLOGIES, published 2017)
